Results on 41 sequences are retold here after the nanobody polyreactivity screen of Harvey et al. (2022).

The data set in a line: yeast display, Sf9 membrane polyspecificity reagent, FACS + sequencing; frameworks hold sequencing errors. Summed up:
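Nanobodies from a synthetic yeast display library (Saccharomyces cerevisiae BJ5465), induced 36–48 hours with galactose, were stained 1 hour at 4 °C with 10% biotinylated, detergent-solubilized Sf9 membrane reagent, enriched on streptavidin microbeads, then FACS-sorted. Anti-HA (expression) and streptavidin (reagent binding) fluorescence set low and high (top ~1%) gates. Polyreactivity labels come from the gate of origin. Genes were colony-PCR amplified, MiSeq 2 × 250 sequenced and filtered by CDR length.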
As for “QVQLVESGGGLVHAGGSLRLICASSGFIFWAYAMGWYRQAPGKERELVAAISNNGVSTYYADSVKGRFTISRDIAKNTVYLQMNSLIPEDTAVYYCGATGVRSKRLASQWKLDYWGQGTQVTVST”, the “polyreactivity (PSR sort gate)” value was “high polyreactivity”. For the sequence “QVQLVESAGGLVQAGGSLRLSCAASGRILFGYAMGWYRQAPGKERELVADITSTGSTNYADSVKGRFTISRDNAKNTVYLQMNSLKPEDTAVYYCNVDDTSWTTSGGRFGQVESDYWGQGTQVTVSS”, the “polyreactivity (PSR sort gate)” value is listed as “low polyreactivity”.

For “QVQLVESGGGLVQAGGSLSLSCAASGSIFLRNAMGWYRQAPGKETEYVASITWNGASTSYADSVMGRFTISRDNAKNTVYLQMNSLKPEDTAVYYCAARDSQYGGPGMDYWGQGTQVTVSS”, the “polyreactivity (PSR sort gate)” value is listed as “low polyreactivity”. Turning to “QVQLVESGGGLVQAGGSLRLSCAASGSTFSPYAMGWYRQSPGKEMELVAVITSSGGDTYYADSVKGRFTISRDNAKNTVYLQMNSLKPEDTAVYYCAADWWVLGQLWFDYWGQGTQVTVSS”, the “polyreactivity (PSR sort gate)” value was “low polyreactivity”.

As for “QVQLVESGGGLVQAGGSLRLSCAASGSIFTTYAMGWYRQAPGKERELVAAISSTSGSTYYADSVKGRFTISRDNAKNTVYLQMNSLKPEDTAVYYCAARGGYWGQGTQVTVSS”, the “polyreactivity (PSR sort gate)” value is listed as “low polyreactivity”. “QVQLVESGGGLVQAGGILRLSCAASGLIFGYYDMGWYRQARGKEREFVAGITYRGSSTYYADSVKGRFTISRDNAKNTVYLQMNSLKPEDTAVYYCAKYKRKKLTTNYYYWGQGTQVTVSS”: the “polyreactivity (PSR sort gate)” value is “high polyreactivity”.

For “QVQLVESGGGLVQAGGSLRLSCAASGYILPKNTMGWYRQAPGKERESVAVITYSGGSTYYADSVKGRFTISRDNAKNTVYLQMNSLKPEDTAVYYCAADKWYYVRYPTDAYSKFDYWGQGTQVTVSS”, the “polyreactivity (PSR sort gate)” value was “low polyreactivity”. With “QVQHVESGRGLVQAGGSLRLSCAASGSIFTSNAMGWYRQAPGIERELVAAISIGGGTYYADSVKGRFTISRDNAKNTVYLQMNSLKPEDTAVYYCAARVGGRRVRFNYWGQGTQVTVSS”, the “polyreactivity (PSR sort gate)” value is reported as “high polyreactivity”. In the case of “QVQLVESGGGLVQAGGSLRLSCAASGSIFDRYALGWYRQAPGKERELVAAISTGGSTNYADSVKGRFTISRDNAKNTVYLQMNSLKPEDTAVYYCAAASPYHEYDYWGQGTQVTVSS” it was “low polyreactivity”. Turning to “QVQLVDSGGGLVQAGGSLRLSCAASGFTITRNVMGWYRQAHGKERELVAAITSGGNTNYADSVKGRFTISRDNAKNTVYLQMNSLKPEDTAVYYCATSYHRRYDYWGQGTQVTVSS”, the “polyreactivity (PSR sort gate)” value was “low polyreactivity”. Consider “QVQLVESGGGLVQAGGSLRLSCAASGFTFSVYAMGWYRQAPGKERELVATITDSGSTNYADSVKGRFTISRDNAKNTVYLQMNSLKPEDTAVYYCNADFRRYVTYHYYRAVIHHDYWGQGTQVTVSS”, for which the “polyreactivity (PSR sort gate)” value was “high polyreactivity”. On to “QVQLVESGGGLVQAGGSLRLSCAASGSTFDDNVMGWYRQAPGKERELVASSTSGGGTNYADSVKGRFTISRDNAKNTVYLQMKSLKPEDTAVYYCAARTQGRRLDYGYWGQGTQVTVSS”, for which the “polyreactivity (PSR sort gate)” value was “low polyreactivity”. As for “QVQLEEYGGGLVQAGGSLRLSCAAAGFTCGGYAMGWYRQAPGKDRELVATITRVGSTNYADSVKGRFTISRDNAKNTVYLQMNSLKPEDTAVYYCNTRRVYGHGNAPYDSWGQATQVTVSS”, the “polyreactivity (PSR sort gate)” value is given as “low polyreactivity”. Turning to “QVQLVESGGGLVQAGGSLRLSCAASGSTFGVYAMGWYRQAPGKERELVAAISWSSGSTYYADSVKGRFTISRDNAKNTVYLQLNSLKPEDTAVYYCNKDVYGYYRTGPRGYDYWGQGTQVTVSS”, the “polyreactivity (PSR sort gate)” value was “high polyreactivity”. With “QVQLEESGGGLVQAGGSLRLSCAASGRTFGWNGMGWYRQAPGKERELVAVISSGGSTKYADSVKGRFTISRDNAKNTVYLQMNSLKPEDTALYYCAKDWVRSGRRNMDYWGQGTQVTFSS”, the “polyreactivity (PSR sort gate)” value is listed as “low polyreactivity”. In the case of “QVQLEESGGGLVQAGGSLRLSCAASGSIFGLYAMGWYRQAPGKERELVAAINQSGGSTSYADSVKGRFTISRDNAKNTVYLQMNSLKPEDTAVYYCNRVRLNTEGFDYWGQGTQVTVSS” it was “low polyreactivity”. Regarding “QVQLVESGGGLVQAGGSLRLSCAASGFIFPNNAMGWYRQAPGKERELVARISYGGGDTHYADSVKGRFTISRDTAKNTVYLQMNSLKPEDTAVYYCAVKDGQDDYWGQGTQVTVSS”, the “polyreactivity (PSR sort gate)” value is listed as “low polyreactivity”.

Turning to “QVQLVESGGGLVQAGGSLRLSCAASGFTFSYYAMGWYRQAPGKERELVATITSGGSTYYADSVKGRFTISRDNAKNTVYLQMNSLKPEDTAVYYCNADWYWRVYWGQGTQVTVSS”, the “polyreactivity (PSR sort gate)” value is on record as “high polyreactivity”. On to “QVQLVESGGGLVQAGGSLRLSCAASGYTFRTNVMGWYRQAPGTERELVATINWRGGSTYYADSVKGRFTISRDYAKNTVYLLINSLKPEDTAVYYCAADGLSNVRQMDYWGQGTQVTVSS”, for which the “polyreactivity (PSR sort gate)” value is recorded as “low polyreactivity”. Consider “QVQLVESGGGLVQAGGSLRLSCAASGSNFYFYAMGWYRQAPGKERELVAAISFTDTSTYYADSVKGRFTISRDNAKNTVYLQMNSLKPEDTAVYYCAADFTQYYYWTRYEYWGQGTQVTVSS”, for which the “polyreactivity (PSR sort gate)” value is “high polyreactivity”. In the case of “QVQLVESGGGLVQAGGSLRLSCSASGSIFSENTMGGYRQAPGKKRELVADITSGGSTNYADSVKGRFTISRDNAKNTVYLQMNSLKPEDTAVYYCAADYNGEYDYWGQGTQVTVSS” it was “low polyreactivity”; in that of “QVQLVESGGGLVQAGGSLRFSCAASGGFFHGNTMGWYRQAPGKERELVAAISNSGGSTYYADSVKGRFPISRDNAKNTVYLQMNSLKPEDTAVDSCARVGYKLYQYKYDYWGQGTQVTVSS”, “low polyreactivity”. In the case of “QVQLVESGGGLVHAGGSLRLSCAASGFIFPWYAMGWSRQAPGKERELVAIISWDTGSTYYADSVKGRFTISRDNAKNTVYLQINRLKPEDSAVYYCVAYVGSTYSAPEYYWGQGTQVTVSS” it was “low polyreactivity”; in that of “QVQLVESGGGLVQAGGSLRLSCAASGSTFVYYAMGWSRQAPGKERELVASIRTGGTTNYADSVKGRFTISRDNAKNTVYLQMNSLKPEDTAVYYCNKDTRPTDTTVSLYYWSAWRDYWGQGTQVTVSS”, “low polyreactivity”; in that of “QVQLVESGGGLVQAGGSLRLSCAASGIIFRGNAMGWYRQAPGKERELVAAISSGGSTYYADSVKGRFTISRDNAKNRVYLQMNSLKPEDTAVYYCNARWYYWGTLYGSWGHGTQVTVSS”, “high polyreactivity”.

As for “QVQLVESWGGVVQAGGSLRLSCAASGRIFQHYAMGWYRQAPGKERELVAAISWRGGSTYYADSVKGRFTISRDNAKNTVFLQMNSLKPEDTAVYYCAAGYRGRIPGFDYWGQGTQVTVSS”, the “polyreactivity (PSR sort gate)” value was “high polyreactivity”. Take “QVQLEESGGGLVQAGGSLRLSCAASGLTFYSYAMGWYRQAPGKERELVAGINYSGDSTHYADSVKGRFTISRDNAKNTVYLQMNSLKPEDTAVYYCASQTFVYRKELLSRYEYWGQGTQVTVSS”: the “polyreactivity (PSR sort gate)” value was “high polyreactivity”. For “QVQLVESGGGLVQAGGSLRLSCAASGYIFVKNAMGWYRQAPGKERELVAAISTRGGRTYYADSVKGRFTISRDNAKNTVYLQMNSLKPEDTAVYYCAAVHQTSYYDANSYGYWGQGTQVTVSS”, the “polyreactivity (PSR sort gate)” value is on record as “high polyreactivity”. Take “QVQLVESGGGLVQAGGSLRLSCAASGRSFWRNAMGWYRQAPGRERELVAAMSRGGSTNYADSVKGRFTMSRDNAKKTVYLPMNSLKPEDTAVYYCAARYYYRYNYWRQGTQVTVSS”: the “polyreactivity (PSR sort gate)” value is on record as “high polyreactivity”. As to “QVQLVESGGGLVQAGGSLRLSCAASGSTFWFNAMGGSRQAPGKERELVAAIPSRGGYTYYADSVKGRFTISRDHAKNTVYLQMNSLKPEDTAVYYCAADYRYSSRKVFHFDYWGQGTQVTVSS”, the “polyreactivity (PSR sort gate)” value is recorded as “low polyreactivity”.

Turning to “QVQLVESGGGLVQAGGSLRLSCAASGSTLLTYTMGWYRQAPGKERELVASITTSGGSTYYADSVKGRFTSSRDNAKNTVYLQMNSLKPEDTAVYYWGQGTQVTVSS”, the “polyreactivity (PSR sort gate)” value is “low polyreactivity”. As to “QVQLVESWGGIVQAGGSLRLSCAASGSTFHDYAMGWYRQAPGKERELVAAISRRASRTYYADSVKGRFTISRDNAKNTDFLQMNSLKPEDTAVYDCNTDQSQKTVVYDYWGQGTQVTVSS”, the “polyreactivity (PSR sort gate)” value was “high polyreactivity”. “QVQLVESGGGLVQAGGSLRLSCAASGSILSTYAMGWYRQAPGKERELVASISSNAGSTYYADSVKGRFTISRDNAKNTVYLQMNSLKPEDTAVYYCNKDGKYHRVLYDYWGQGTQVTVSS”: the “polyreactivity (PSR sort gate)” value was “low polyreactivity”. As to “QFQLVESGGGLVQAGGSLRLSCAASGIIFRYYGMGWYRQAPGKERELVARILWTGGSTYYADSVKGRFTISRDNAKNTVYFQMNSLKPEDTAVYYSAADIWQYSRIANYHPYEYWGQGTQVTVSS”, the “polyreactivity (PSR sort gate)” value is “low polyreactivity”. With “QVQVVESGGGLVQAGGSLRLSCAASGLIFVYYAMGWYRQAPGKERELVAGITRGGGTNYADSVKGRFTISRDNAKNSFYLQMNSLKPEDTAVYYCAADDLPGMDYWGQGTQVTVSS”, the “polyreactivity (PSR sort gate)” value is recorded as “low polyreactivity”. For “QVQLVESGGGLVQAGGSLRLSCAASGRIFRPYAMGWYRQAPGKERELVAGITSSGGSTYYADSVEGRFTISRDNAKNTVYLQMNSLKPEDTAVYYCAAVHGLFRPLHYYWGQGTQVTVSS”, the “polyreactivity (PSR sort gate)” value is “low polyreactivity”. In the case of “QVQLVESGGGLVQAGGSLRLICAASGRIFGLNAMGWYRQAPGKEREFVAAITWRGGRTYYADSVKGRFTISRDNAKNTVYLQMNSLKPEDTAVYYCAADGGSTLDYYWGQGTQVTVSS” it was “low polyreactivity”; in that of “QVQLVESGGGLVQAGGSRRLSCAASGCILRDNAMGWYRQAPGKEREVVAAISYSGDLTYYADSVKGRFTISRDNAKNTVYLQMNSLIPEDTAVYDCAALYPKVRGYRSDDLWGQGTQVTVSS”, “high polyreactivity”. “QVQLVESGGGLVQAGGSLRLSCAASGSTFYQYDMGWSRQAPGKERELVATISWSATSTYYADSVKGRFTISRDNAKNTVYLQMNSLKPEDTAVYYCNADLGDVYGWLHYDYWGQGTQVTVSS”: the “polyreactivity (PSR sort gate)” value is given as “low polyreactivity”. For the sequence “QVQLVESVGGLVQEGGSLRLISAASGSIFGSNAMGWYRQAPGKEREMFAAISKSGGSTYYADSVKGRFTISRDNAKNTVYLQMNSLKPEDTAVFYCNPRWWVVTFYGRYEGDYWGQGTQVTVSS”, the “polyreactivity (PSR sort gate)” value is reported as “low polyreactivity”.

In the case of “QVQLVESGGGLVQAGGSLRLSCAASGIIFPGKAMGWYRQAPGKERELVAAISSGGNTKYADSVKGRFTISRDNAKNTGYLQMNSLNPEDTAVYYCAAAARARNPSYGRNYWGQGTQVTVSS”, the “polyreactivity (PSR sort gate)” value is given as “high polyreactivity”.
